Measurements published in patent US20140120128A1.

Tests used:
Assay in all cases: cell-based or functional assay
[1] = biological target: human TLR2 expressed on HEK293 cells (human) (UniProt O60603)
[2] = biological target: human TLR3 expressed on HEK293 cells (human) (UniProt O15455)
[3] = biological target: human TLR4 (MD2-CD14) expressed on HEK293 cells (human) (UniProt O00206)
[4] = biological target: human TLR5 expressed on HEK293 cells (human) (UniProt O60602)
[5] = biological target: T1, human TLR7 expressed on HEK293 cells (human) (UniProt Q9NYK1)
T1 sequence: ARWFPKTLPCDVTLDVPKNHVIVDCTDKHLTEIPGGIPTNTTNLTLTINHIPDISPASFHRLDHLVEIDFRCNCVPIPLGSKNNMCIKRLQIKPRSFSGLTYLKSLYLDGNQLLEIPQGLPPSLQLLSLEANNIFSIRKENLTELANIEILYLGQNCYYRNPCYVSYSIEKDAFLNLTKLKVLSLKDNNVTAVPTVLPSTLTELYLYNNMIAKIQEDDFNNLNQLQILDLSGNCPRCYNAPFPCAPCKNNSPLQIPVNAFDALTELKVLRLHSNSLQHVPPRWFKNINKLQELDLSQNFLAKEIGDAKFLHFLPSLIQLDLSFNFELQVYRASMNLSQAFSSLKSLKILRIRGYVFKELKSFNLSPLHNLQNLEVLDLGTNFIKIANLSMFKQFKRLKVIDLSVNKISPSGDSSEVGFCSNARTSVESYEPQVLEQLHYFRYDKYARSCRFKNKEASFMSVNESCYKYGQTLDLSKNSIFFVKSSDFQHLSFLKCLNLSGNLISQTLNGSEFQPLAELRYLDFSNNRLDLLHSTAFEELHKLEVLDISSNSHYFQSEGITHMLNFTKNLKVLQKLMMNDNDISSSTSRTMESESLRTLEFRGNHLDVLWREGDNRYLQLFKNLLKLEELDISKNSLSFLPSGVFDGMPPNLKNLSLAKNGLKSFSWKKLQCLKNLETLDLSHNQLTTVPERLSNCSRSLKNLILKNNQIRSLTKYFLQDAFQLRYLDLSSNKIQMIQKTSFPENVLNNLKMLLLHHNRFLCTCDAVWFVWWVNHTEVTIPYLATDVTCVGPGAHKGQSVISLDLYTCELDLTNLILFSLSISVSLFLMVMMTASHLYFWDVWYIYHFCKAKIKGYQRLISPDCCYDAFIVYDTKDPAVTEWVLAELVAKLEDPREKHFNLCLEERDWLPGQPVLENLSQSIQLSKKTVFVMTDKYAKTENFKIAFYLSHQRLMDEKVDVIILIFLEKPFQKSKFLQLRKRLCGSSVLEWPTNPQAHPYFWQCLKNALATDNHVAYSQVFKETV

[6] = biological target: T2, human TLR8 expressed on HEK293 cells (human) (UniProt Q9NR97)
T2 sequence: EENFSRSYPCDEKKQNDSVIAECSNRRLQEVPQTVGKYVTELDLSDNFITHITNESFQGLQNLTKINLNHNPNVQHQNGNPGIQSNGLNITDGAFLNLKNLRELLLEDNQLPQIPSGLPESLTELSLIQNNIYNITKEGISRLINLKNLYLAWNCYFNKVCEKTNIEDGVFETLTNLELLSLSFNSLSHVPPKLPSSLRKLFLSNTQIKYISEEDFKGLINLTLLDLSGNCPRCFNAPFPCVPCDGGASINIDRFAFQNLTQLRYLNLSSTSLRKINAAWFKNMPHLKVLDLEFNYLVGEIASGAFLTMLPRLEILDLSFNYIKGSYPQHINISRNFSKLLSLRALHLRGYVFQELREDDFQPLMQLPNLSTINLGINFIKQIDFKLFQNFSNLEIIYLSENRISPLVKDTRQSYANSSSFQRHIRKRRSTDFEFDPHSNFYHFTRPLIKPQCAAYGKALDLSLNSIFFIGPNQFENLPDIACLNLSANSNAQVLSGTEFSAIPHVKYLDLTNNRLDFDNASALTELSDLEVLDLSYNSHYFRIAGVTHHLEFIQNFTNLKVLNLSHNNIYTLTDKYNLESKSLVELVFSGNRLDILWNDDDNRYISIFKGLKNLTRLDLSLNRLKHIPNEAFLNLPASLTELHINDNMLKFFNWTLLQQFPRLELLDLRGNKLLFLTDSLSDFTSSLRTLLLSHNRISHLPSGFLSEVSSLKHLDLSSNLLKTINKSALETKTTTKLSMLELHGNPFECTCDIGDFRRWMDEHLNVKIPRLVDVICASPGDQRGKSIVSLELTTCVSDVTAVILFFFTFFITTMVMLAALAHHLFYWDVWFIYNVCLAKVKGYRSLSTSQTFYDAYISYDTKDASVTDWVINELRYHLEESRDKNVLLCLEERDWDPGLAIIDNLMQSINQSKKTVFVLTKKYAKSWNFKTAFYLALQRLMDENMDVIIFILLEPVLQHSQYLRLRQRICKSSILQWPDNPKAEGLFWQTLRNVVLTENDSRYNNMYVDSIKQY

[7] = biological target: T3, human TLR9 expressed on HEK293 cells (human) (UniProt Q9NR96)
T3 sequence: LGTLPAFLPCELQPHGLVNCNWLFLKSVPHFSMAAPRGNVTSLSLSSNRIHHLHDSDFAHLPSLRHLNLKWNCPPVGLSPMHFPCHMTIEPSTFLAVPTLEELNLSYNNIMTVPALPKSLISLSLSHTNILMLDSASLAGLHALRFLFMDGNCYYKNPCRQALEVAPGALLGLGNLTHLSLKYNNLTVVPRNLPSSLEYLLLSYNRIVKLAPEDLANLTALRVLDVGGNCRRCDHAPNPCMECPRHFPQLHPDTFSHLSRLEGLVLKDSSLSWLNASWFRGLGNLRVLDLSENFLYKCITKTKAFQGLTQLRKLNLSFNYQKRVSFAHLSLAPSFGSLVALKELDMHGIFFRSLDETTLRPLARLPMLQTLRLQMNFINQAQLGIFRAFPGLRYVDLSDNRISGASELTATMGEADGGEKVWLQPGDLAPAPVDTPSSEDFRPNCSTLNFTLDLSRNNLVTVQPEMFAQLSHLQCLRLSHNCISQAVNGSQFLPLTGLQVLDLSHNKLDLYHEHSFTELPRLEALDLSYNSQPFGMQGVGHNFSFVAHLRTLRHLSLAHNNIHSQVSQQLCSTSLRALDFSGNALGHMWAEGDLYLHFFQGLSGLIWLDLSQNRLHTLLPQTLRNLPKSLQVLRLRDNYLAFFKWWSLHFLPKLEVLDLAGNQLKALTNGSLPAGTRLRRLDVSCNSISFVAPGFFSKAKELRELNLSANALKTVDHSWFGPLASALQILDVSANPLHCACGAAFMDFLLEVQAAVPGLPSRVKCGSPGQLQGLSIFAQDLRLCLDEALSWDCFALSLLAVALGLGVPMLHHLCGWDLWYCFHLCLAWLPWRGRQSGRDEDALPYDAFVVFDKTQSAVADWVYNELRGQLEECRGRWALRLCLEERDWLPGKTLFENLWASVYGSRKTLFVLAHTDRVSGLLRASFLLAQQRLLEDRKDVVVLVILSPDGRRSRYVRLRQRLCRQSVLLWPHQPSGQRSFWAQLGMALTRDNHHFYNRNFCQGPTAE

Sequence of human TLR2 expressed on HEK293 cells (human) (O60603 21-784): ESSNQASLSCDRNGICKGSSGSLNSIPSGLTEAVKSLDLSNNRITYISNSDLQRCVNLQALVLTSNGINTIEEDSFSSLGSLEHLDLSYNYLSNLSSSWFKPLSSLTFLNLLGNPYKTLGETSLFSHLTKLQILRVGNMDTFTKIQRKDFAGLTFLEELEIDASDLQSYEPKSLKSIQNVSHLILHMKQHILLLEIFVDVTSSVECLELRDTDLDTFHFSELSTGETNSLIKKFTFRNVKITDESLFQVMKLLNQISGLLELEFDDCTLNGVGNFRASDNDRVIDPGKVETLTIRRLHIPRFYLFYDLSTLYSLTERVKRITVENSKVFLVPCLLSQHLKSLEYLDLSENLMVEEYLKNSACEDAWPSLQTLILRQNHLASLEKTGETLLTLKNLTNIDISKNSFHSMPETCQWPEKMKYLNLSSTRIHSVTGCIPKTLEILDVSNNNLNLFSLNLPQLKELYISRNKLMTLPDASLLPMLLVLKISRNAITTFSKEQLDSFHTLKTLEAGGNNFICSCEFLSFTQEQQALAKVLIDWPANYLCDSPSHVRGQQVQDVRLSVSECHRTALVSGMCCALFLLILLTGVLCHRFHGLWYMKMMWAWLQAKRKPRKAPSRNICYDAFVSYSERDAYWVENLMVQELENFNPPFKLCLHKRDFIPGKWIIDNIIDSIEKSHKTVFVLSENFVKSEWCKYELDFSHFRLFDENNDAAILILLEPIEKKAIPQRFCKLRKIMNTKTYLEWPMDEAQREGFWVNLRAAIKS
Sequence of human TLR5 expressed on HEK293 cells (human) (O60602 21-858): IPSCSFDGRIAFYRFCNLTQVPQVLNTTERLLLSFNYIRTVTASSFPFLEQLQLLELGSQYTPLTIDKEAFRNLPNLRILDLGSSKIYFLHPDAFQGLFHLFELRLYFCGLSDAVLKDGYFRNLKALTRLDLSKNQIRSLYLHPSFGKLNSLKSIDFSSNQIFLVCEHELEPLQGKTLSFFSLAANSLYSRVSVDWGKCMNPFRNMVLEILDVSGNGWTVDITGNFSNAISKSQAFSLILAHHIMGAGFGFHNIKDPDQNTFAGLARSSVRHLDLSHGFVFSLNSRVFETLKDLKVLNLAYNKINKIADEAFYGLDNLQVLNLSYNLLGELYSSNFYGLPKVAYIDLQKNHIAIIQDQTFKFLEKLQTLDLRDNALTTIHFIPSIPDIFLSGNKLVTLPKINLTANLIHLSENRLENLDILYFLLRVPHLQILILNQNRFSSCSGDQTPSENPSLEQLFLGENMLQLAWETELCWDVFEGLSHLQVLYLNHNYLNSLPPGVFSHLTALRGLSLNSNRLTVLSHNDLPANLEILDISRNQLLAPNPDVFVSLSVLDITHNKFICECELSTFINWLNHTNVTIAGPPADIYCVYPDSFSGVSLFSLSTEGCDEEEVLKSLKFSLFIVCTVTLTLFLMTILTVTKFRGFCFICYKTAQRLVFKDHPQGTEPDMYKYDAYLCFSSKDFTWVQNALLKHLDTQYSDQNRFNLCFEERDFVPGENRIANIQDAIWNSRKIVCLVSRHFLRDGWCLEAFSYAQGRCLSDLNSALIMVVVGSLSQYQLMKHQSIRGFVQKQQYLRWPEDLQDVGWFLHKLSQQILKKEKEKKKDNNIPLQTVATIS
Sequence of human TLR4 (MD2-CD14) expressed on HEK293 cells (human) (O00206 24-839 limits assumed, chain 1 of 3): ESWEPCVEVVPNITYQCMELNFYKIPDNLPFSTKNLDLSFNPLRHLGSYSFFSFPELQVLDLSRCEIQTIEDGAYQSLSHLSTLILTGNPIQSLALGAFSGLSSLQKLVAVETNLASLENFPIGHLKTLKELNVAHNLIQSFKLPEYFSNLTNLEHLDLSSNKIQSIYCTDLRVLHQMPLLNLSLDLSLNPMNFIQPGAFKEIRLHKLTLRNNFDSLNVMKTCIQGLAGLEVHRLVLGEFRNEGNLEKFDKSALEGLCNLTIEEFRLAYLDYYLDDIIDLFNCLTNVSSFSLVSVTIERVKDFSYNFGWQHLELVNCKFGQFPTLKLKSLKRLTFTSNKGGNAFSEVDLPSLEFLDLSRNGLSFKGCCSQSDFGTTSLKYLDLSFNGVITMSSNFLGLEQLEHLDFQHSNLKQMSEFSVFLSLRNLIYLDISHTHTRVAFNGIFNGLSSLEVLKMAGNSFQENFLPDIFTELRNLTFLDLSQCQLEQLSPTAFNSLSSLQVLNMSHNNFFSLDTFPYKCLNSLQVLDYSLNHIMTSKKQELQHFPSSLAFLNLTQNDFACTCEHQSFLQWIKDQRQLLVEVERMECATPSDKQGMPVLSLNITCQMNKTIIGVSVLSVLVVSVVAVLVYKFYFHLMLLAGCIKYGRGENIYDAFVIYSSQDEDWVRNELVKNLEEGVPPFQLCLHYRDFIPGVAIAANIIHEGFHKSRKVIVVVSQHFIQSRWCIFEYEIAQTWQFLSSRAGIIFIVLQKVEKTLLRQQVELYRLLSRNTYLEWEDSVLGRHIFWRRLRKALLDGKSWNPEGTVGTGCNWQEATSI
Sequence of human TLR4 (MD2-CD14) expressed on HEK293 cells (human) (Q9Y6Y9 19-160 limits assumed, chain 2 of 3, further chain): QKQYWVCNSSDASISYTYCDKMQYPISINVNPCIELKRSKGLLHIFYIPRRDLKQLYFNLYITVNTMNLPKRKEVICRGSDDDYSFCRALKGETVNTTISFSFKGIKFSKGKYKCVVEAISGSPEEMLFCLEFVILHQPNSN
Sequence of human TLR4 (MD2-CD14) expressed on HEK293 cells (human) (P08571 20-345 limits assumed, chain 3 of 3, further chain): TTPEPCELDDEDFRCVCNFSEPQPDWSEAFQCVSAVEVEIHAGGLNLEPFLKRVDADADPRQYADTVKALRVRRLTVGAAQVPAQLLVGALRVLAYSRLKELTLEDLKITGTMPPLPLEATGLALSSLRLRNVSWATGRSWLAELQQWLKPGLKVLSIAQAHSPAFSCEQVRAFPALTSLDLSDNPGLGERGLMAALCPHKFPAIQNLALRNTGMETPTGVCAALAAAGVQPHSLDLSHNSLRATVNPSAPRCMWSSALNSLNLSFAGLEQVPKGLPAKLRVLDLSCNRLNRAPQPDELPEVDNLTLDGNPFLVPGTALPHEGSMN

B1: truncated YscF (protein)
chain: LKKPADDANKAVNDSIAALKDKPDNPALLADLQHSINKWSVIYNINSTIVRSMKDLMQGILQKFP
[1]
  SEAP reporter expression in HEK293 cells, screening 1: 2.02
  SEAP reporter expression in HEK293 cells, screening 2: 1.98
[2]
  SEAP reporter expression in HEK293 cells, screening 1: 0.097
  SEAP reporter expression in HEK293 cells, screening 2: 0.101
[3]
  SEAP reporter expression in HEK293 cells, screening 1: 2
  SEAP reporter expression in HEK293 cells, screening 2: 1.9
[4]
  SEAP reporter expression in HEK293 cells, screening 1: 0.15
  SEAP reporter expression in HEK293 cells, screening 2: 0.154
[5]
  SEAP reporter expression in HEK293 cells, screening 1: 0.091
  SEAP reporter expression in HEK293 cells, screening 2: 0.097
[6]
  SEAP reporter expression in HEK293 cells, screening 1: 0.099
  SEAP reporter expression in HEK293 cells, screening 2: 0.105
[7]
  SEAP reporter expression in HEK293 cells, screening 1: 0.079
  SEAP reporter expression in HEK293 cells, screening 2: 0.079
